Measured values: paper PMC4176352, “Essential role of eIF5-mimic protein in animal development is linked to control of ATF4 expression” (Nucleic Acids Research, 2014)

B1: human eIF2β 53–136 (domain or fragment, UniProt P20042 53-136, looked up)
chain: DLEADEEDTRKKDASDDLDDLNFFNQKKKKKKTKKIFDIDEAEEGVKDLKIESDVQEPTEPEDDLDIMLGNKKKKKKNVKFPDE
notes: human eIF2 beta subunit, residues 53-136, carrying two K-boxes; also called eIF2β_(53–135)
B2: polyhistidine-tagged full-length human 5MP1 (natural protein, UniProt Q9Y6E2 1-419, looked up)
chain: MNKHQKPVLTGQRFKTRKRDEKEKFEPTVFRDTLVQGLNEAGDDLEAVAKFLDSTGSRLDYRRYADTLFDILVAGSMLAPGGTRIDDGDKTKMTNHCVFSANEDHETIRNYAQVFNKLIRRYKYLEKAFEDEMKKLLLFLKAFSETEQTKLAMLSGILLGNGTLPATILTSLFTDSLVKEGIAASFAVKLFKAWMAEKDANSVTSSLRKANLDKRLLELFPVNRQSVDHFAKYFTDAGLKELSDFLRVQQSLGTRKELQKELQERLSQECPIKEVVLYVKEEMKRNDLPETAVIGLLWTCIMNAVEWNKKEELVAEQALKHLKQYAPLLAVFSSQGQSELILLQKVQEYCYDNIHFMKAFQKIVVLFYKADVLSEEAILKWYKEAHVAKGKSVFLDQMKKFVEWLQNAEEESESEGEEN
notes: human eIF5-mimic protein 1 (5MP1, BZW2), full length; Preparation of the construct is described in the Supplementary file; also called BZW2; eIF5-mimic protein 1
B3: polyhistidine-tagged human 5MP1 C-terminal domain (aa. 245–419) (domain or fragment, UniProt Q9Y6E2 245-419, looked up)
chain: FLRVQQSLGTRKELQKELQERLSQECPIKEVVLYVKEEMKRNDLPETAVIGLLWTCIMNAVEWNKKEELVAEQALKHLKQYAPLLAVFSSQGQSELILLQKVQEYCYDNIHFMKAFQKIVVLFYKADVLSEEAILKWYKEAHVAKGKSVFLDQMKKFVEWLQNAEEESESEGEEN
notes: human eIF5-mimic protein 1 (5MP1, BZW2), CTD, aa; 245-419; Preparation of the construct is described in the Supplementary file; also called 5MP1-CTD; CTD

Assays:
Experiment in all cases: ITC; a solution of eIF2β 53–136 injected with human 5MP1 constructs; performed as described previously (16)
Conditions in all cases: both partners purified
[1] = target: B2
[2] = target: B3
human eIF2β 53–136 = target: B1

Binder | Kd [1] [µM] | Kd [2] [µM] | stoichiometry N (human eIF2β 53–136)
B1 | ~2 | ~5 | 
B2 |  |  | 1
B3 |  |  | 0.5
